From article PMC3510509, “Binding of two DNA molecules by type II topoisomerases for decatenation”

How the values were obtained:
[1] = target: T1, DNA gyrase holoenzyme (MsGyr) (Mycobacterium smegmatis, UniProt P48354;P0C559 1-842;1-675); experiment: EMSA; 1.4 mM ATP; one complex; EMSA: 35 mM Tris-HCl pH 7.5, 1 mM spermidine, 25 mM K-glutamate, 90 ug/ml tRNA, 1.4 mM ATP, 50 ug/ml BSA, room temp (25 C), 1 nM DNA; filter binding: same mix on ice; SPR: 33 mM Tris-HCl pH 8.0, 5 mM MgCl2, 3 mM DTT, 25 C; details: protein: recombinant; chain copies: 2;2; label: 32P 5'-end; blunt
[2] = target: DNA gyrase holoenzyme (EcGyr) (Escherichia coli, UniProt P0AES4;P0AES6 1-875;1-804); experiment: EMSA; 1.4 mM ATP; one complex; EMSA: 35 mM Tris-HCl pH 7.5, 1 mM spermidine, 25 mM K-glutamate, 90 ug/ml tRNA, 1.4 mM ATP, 50 ug/ml BSA, room temp (25 C), 1 nM DNA; filter binding: same mix o
[3] = target: T1, DNA gyrase holoenzyme (MsGyr); experiment: EMSA; 1.4 mM ATP; two complexes; EMSA: 35 mM Tris-HCl pH 7.5, 1 mM spermidine, 25 mM K-glutamate, 90 ug/ml tRNA, 1.4 mM ATP, 50 ug/ml BSA, room temp (25 C), 1 nM DNA; filter binding: same mix on ice; SPR: 33 mM Tris-HCl pH 8.0, 5 mM MgCl2, 3 mM DTT, 25 C; details: protein: recombinant, chain copies: 2;2, blunt
GyrB R321A = GyrB R321A (Mycobacterium smegmatis, UniProt P0C559 1-675, R321A); experiment: EMSA; 200 and 400 nM; complex not seen; EMSA: 35 mM Tris-HCl pH 7.5, 1 mM spermidine, 25 mM K-glutamate, 90 ug/ml tRNA, 1.4 mM ATP, 50 ug/ml BSA, room temp (25 C), 1 nM DNA; filter binding: same mix on ice; SPR: 33 mM Tris-HCl pH 8.0, 5 mM MgCl2, 3 mM DTT, 25 C; details: protein: recombinant; label: 32P 5'-end; blunt
GyrB (MsGyrB) = GyrB (MsGyrB) (Mycobacterium smegmatis, UniProt P0C559 1-675); experiment: EMSA; 0.1 and 0.2 uM GyrB; EMSA: 35 mM Tris-HCl pH 7.5, 1 mM spermidine, 25 mM K-glutamate, 90 ug/ml tRNA, 1.4 mM ATP, 50 ug/ml BSA, room temp (25 C), 1 nM DNA; filter binding: same mix on ice; SPR: 33 mM Tris-HCl pH 8.0, 5 mM MgCl2, 3 mM DTT, 25 C; details: protein: recombinant; label: 32P 5'-end; blunt
ParE = ParE (Escherichia coli, UniProt P20083 1-630); experiment: filter binding; 20 nM protein; most efficient of those tested; EMSA: 35 mM Tris-HCl pH 7.5, 1 mM spermidine, 25 mM K-glutamate, 90 ug/ml tRNA, 1.4 mM ATP, 50 ug/ml BSA, room temp (25 C), 1 nM DNA; filter binding: same mix on ice; SPR: 33 mM Tris-HCl pH 8.0, 5 mM MgCl2, 3 mM DTT, 25 C; details: protein: recombinant; label: 32P 5'-end; blunt
[4] = target: EAMB hybrid gyrase (EcGyrA + MsGyrB) (Escherichia coli / Mycobacterium …, UniProt P0AES4;P0C559 1-875;1-675); experiment: EMSA; two complexes; EMSA: 35 mM Tris-HCl pH 7.5, 1 mM spermidine, 25 mM K-glutamate, 90 ug/ml tRNA, 1.4 mM ATP, 50 ug/ml BSA, room temp (25 C), 1 nM DNA; filter binding: same mix on ice; SPR: 33 mM Tris-HCl pH 8.0, 5 mM MgCl2, 3 mM DTT, 25 C; details: protein: recombinant; chain copies: 2;2; label: 32P 5'-end; blunt
[5] = target: Topoisomerase IV holoenzyme (Escherichia coli, UniProt P0AFI2;P20083 1-752;1-630); experiment: EMSA; 5-40 nM; two complexes; EMSA: 35 mM Tris-HCl pH 7.5, 1 mM spermidine, 25 mM K-glutamate, 90 ug/ml tRNA, 1.4 mM ATP, 50 ug/ml BSA, room temp (25 C), 1 nM DNA; filter binding: same mix on ice; SPR: 33 mM Tris-HCl pH 8.0, 5 mM MgCl2, 3 mM DTT, 25 C; details: protein: recombinant; chain copies: 2;2; label: 32P 5'-end; blunt
[6] = target: MAEB hybrid gyrase (MsGyrA + EcGyrB) (Mycobacterium smegmatis / Escherichia …, UniProt P48354;P0AES6 1-842;1-804); experiment: EMSA; one complex; EMSA: 35 mM Tris-HCl pH 7.5, 1 mM spermidine, 25 mM K-glutamate, 90 ug/ml tRNA, 1.4 mM ATP, 50 ug/ml BSA, room temp (25 C), 1 nM DNA; filter binding: same mix o
[7] = target: T1, DNA gyrase holoenzyme (MsGyr); experiment: pull-down; first DNA, then 240 bp; 200 nM enzyme; EMSA: 35 mM Tris-HCl pH 7.5, 1 mM spermidine, 25 mM K-glutamate, 90 ug/ml tRNA, 1.4 mM ATP, 50 ug/ml BSA, room temp (25 C), 1 nM DNA; filter binding: same mix on ice; SPR: 33 mM Tris-HCl pH 8.0, 5 mM MgCl2, 3 mM DTT, 25 C; details: protein: recombinant; chain copies: 2;2; label: biotin on one strand, 32P on complement; blunt

B1: DNA I (40 bp) (dsDNA)
DNA 1: GGTTGGACTAAGTCCCCAGGCCCCTTAGCCACCACAACGT
DNA 2: ACGTTGTGGTGGCTAAGGGGCCTGGGGACTTAGTCCAACC
- binding result [1]: binds
- binding result [2]: binds

B2: DNA II (72 bp) (dsDNA)
DNA 1: ACTCTAGAGGATCCCCGGTTGGACTAAGTCCCCAGGCCCCTTAGCCACCACAACGTGGGTACCGAGCTCGAA
DNA 2: TTCGAGCTCGGTACCCACGTTGTGGTGGCTAAGGGGCCTGGGGACTTAGTCCAACCGGGGATCCTCTAGAGT
- binding result ([3]; label: 32P 5'-end): binds
- binding result (GyrB R321A): no binding
- binding result (GyrB (MsGyrB)): binds
- binding result (ParE): binds
- binding result [4]: binds
- binding result [5]: binds
- binding result [6]: binds
- binding result [2]: binds

B3: biotinylated 72 bp DNA (dsDNA)
DNA 1: B2 DNA 1
DNA 2: B2 DNA 2
- binding result [7]: binds

B4: DNA III (143 bp) (dsDNA)
DNA 1: GTAAAACGACGGCCAGTGCCAAGCTTGCATGCCTGCAGGTCGACTCTAGAGGATCCCCGGTTGGACTAAGTCCCCAGGCCCCTTAGCCACCACAACGTGGGTACCGAGCTCGAATTCGTAATCATGGTCATAGCTGTTTCCTG
DNA 2: CAGGAAACAGCTATGACCATGATTACGAATTCGAGCTCGGTACCCACGTTGTGGTGGCTAAGGGGCCTGGGGACTTAGTCCAACCGGGGATCCTCTAGAGTCGACCTGCAGGCATGCAAGCTTGGCACTGGCCGTCGTTTTAC
- binding result ([3]; label: 32P 5'-end (forward primer)): binds
- binding result [2]: binds
